Earlier results, collected in patent publication US9782344B2, “Stable glucagon peptide formulations” (ZP Opco, Inc., priority 2013, dated 2017).
Where two headings read alike, the source gives them in different places.

## glucagon
pH below 3 or above 9
  behaviour in aqueous solution: readily dissolved
pH between 4 and 8
  behaviour in aqueous solution: precipitates readily
